Paper PMC10219370, “Exploring Redox Modulation of Plant UDP-Glucose Pyrophosphorylase” (International Journal of Molecular Sciences, 2023)
Changes are numbered by the printed parent chain. Names may count otherwise.

B1: barley UGPase (Hordeum vulgare) (protein)
chain: MAAAAVAADSKIDGLRDAVAKLGEISENEKAGFISLVSRYLSGEAEQIEWSKIQTPTDEVVVPYDTLAPPPEDLDAMKALLDKLVVLKLNGGLGTTMGCTGPKSVIEVRNGFTFLDLIVIQIESLNKKYGCSVPLLLMNSFNTHDDTQKIVEKYSNSNIEIHTFNQSQYPRIVTEDFLPLPSKGQTGKDGWYPPGHGDVFPSLNNSGKLDTLLSQGKEYVFVANSDNLGAIVDIKILNHLIHNQNEYCMEVTPKTLADVKGGTLISYEGRVQLLEIAQVPDEHVDEFKSIEKFKIFNTNNLWVNLKAIKRLVDAEALKMEIIPNPKEVDGVKVLQLETAAGAAIRFFEKAIGINVPRSRFLPVKATSDLLLVQSDLYTLVDGYVIRNPARVKPSNPSIELGPEFKKVANFLARFKSIPSIVELDSLKVSGDVSFGSGVVLKGNVTIAAKAGVKLEIPDGAVLENKDINGPEDI
notes: active as monomer
B2: barley UGPase (Hordeum vulgare; C99S) (protein)
chain: B1 chain with C99S
notes: active as monomer
B3: sugarcane UGPase (Saccharum hybrid cultivar SP80-3280) (protein)
chain: MAAAAAAEVSVDEKLDKLRAEVAKLDQISENEKAGFISLVSRYLSGEAEQIEWSKIQTPTDEVVVPYDTLASPPEDLEETKKLLDKLVVLKLNGGLGTTMGCTGPKSVIEVRNGFTFLDLIVIQIESLNKKYGCSVPLLLMNSFNTHDDTQKIVEKYSNSNIEIHTFNQSQYPRIVTEDFLPLPSKGKSGKDGWYPPGHGDVFPSLNNSGKLDILLAQGKEYVFIANSDNLGAIVDIKILNHLINNQNEYCMEVTPKTLADVKGGTLISYEGRVQLLEIAQVPDEHVNEFKSIEKFKIFNTNNLWVNLKAIKRLVEAEALKMEIIPNPKEVDGVKVLQLETAAGAAIRFFDKAIGINVPRSRFLPVKATSDLLLVQSDLYTLVDGFVIRNPARANPANPSIELGPEFKKVANFLARFKSIPSIVELDSLKVSGDVWFGSGITLKGKVTITAKSGVKLEIPDGAVLENKDVNGPEDL
notes: active as monomer
B4: sugarcane UGPase (Saccharum hybrid cultivar SP80-3280; C102S) (protein)
chain: B3 chain with C102S
notes: active as monomer

Legend:
Assay in all cases: purified protein
[1] = substrate: O=P(O)(O)OP(=O)(O)O; assay type: biochemical, Hordeum vulgare; conditions: reduced enzyme (2 mM DTT overnight), 5 mM MgCl2, Hepes-NaOH pH 7.5, room temperature
[2] = substrate: O=c1ccn([C@@H]2O[C@H](CO[P@@](=O)(O)O[P@@](=O)(O)O[C@H]3O[C@H](CO)[C@@H](O)[C@H](O)[C@H]3O)[C@@H](O)[C@H]2O)c(=O)[nH]1; assay type: biochemical, Hordeum vulgare; conditions: reduced enzyme (2 mM DTT overnight), 5 mM MgCl2, Hepes-NaOH pH 7.5, room temperature
[3] = substrate: O=P(O)(O)OP(=O)(O)O; assay type: biochemical, Saccharum hybrid cultivar; conditions: untreated enzyme, UDPG fixed at 2 mM, 5 mM MgCl2, Hepes-NaOH pH 7.5, room temperature
[4] = substrate: O=c1ccn([C@@H]2O[C@H](CO[P@@](=O)(O)O[P@@](=O)(O)O[C@H]3O[C@H](CO)[C@@H](O)[C@H](O)[C@H]3O)[C@@H](O)[C@H]2O)c(=O)[nH]1; assay type: biochemical, Saccharum hybrid cultivar; conditions: untreated enzyme, PPi fixed at 1 mM, 5 mM MgCl2, Hepes-NaOH pH 7.5, room temperature

Protein | Km [3] | Km [4] | also measured
B1 | – | – | Km ([1]; UDPG fixed at 1 mM): 30 µM; Km ([2]; PPi fixed at 1 mM): 40 µM
B2 | – | – | Km ([1]; UDPG fixed at 2 mM): 310 µM; Km ([2]; PPi fixed at 5 mM): 110 µM
B3 | 40 µM | 80 µM | –
B4 | 230 µM | 110 µM | –
